Experimental data taken from patent US10391180B2, “Self-assembling complex for targeting chemical agents to cells” (CEDARS-SINAI MEDICAL CENTER, priority 2007, dated 2019).

How the values were obtained:
[1] = HerDox stability under different storage temperatures; type: physicochemical; settings: up to 12 days
Protocol: FIGS. 6 (A)-(B) illustrates conjugate stability under different storage conditions, or in serum. As illustrated in FIG. 6 (A), HerDox was incubated up to 12 days at 4° C., RT, or 37° C. Samples were filtered through ultrafiltration spin columns every other day, and retentate and filtrate absorbances measured at 480 nm to determine relative Dox retention or release from conjugates, respectively. As illustrated in FIG. 6 (B), to mimic extended exposure to cells in culture medium, HerDox immobilized on Ni-NTA beads were incubated with bovine serum in DMEM for the indicated times at 37° C. before each sample was pelleted. Absorbance of supernatants (Filtrates) and bead eluates (Retentates) were measured at 480 nm to detect Dox. Relative Dox release or retention in serum is expressed as normalized to control (corresponding sample lacking serum). N=3 per time point.
The inventors tested the stability of HerDox over 12 days under different storage temperatures: 4° C., room temperature, or 37° C. On each day, a sample underwent ultrafiltration, then filtrates and retentates were measured to determine whether any Dox was released from the complex. […] The inventors also examined HerDox stability in serum-containing media at 37° C. […] Dox retention in the conjugate was also assessed by eluting the conjugate from the beads at each time point.

HER2+ tumors = test: HerDox vs Dox biodistribution by Dox fluorescence imaging; type: in vivo, mice
Protocol: FIGS. 11 (A)-(B) illustrates preferential targeting of HerDox to HER2+ tumors. Tumor-bearing mice were injected with 0.75 nmoles of HerDox or Dox via the tail vein and imaged with a custom small animal imager. FIG. 11 (A) depicts imaging of live mice after IV delivery of HerDox. Tumors are indicated by arrows. FIG. 11 (B) depicts imaging of tumors and tissues harvested at 3 h after injection of HerDox or Dox. Fluorescence signal from Dox is pseudo-colored according to the color bar, with a shift toward 100 indicating high fluorescence intensity. FIG. 11 (B) illustrates a comparison of the targeted delivery of Dox to HER2+ breast cancer cells with minimal delivery to other organs and tissues using a delivery system in accordance with an embodiment of the present invention (left panel), as compared with Dox administered alone (right panel).
Dox emits a red fluorescence upon appropriate wavelength excitation, which can be used to detect biodistribution after systemic delivery of HerDox. Mice bearing 4-week old) tumors (˜700-800 mm^3) received a single tail vein injection of Dox or HerDox ([…] with respect to Dox cone) and images of live mice captured in real time, or of organs/tissues harvested at ˜3 h postinjection were acquired using a customized macro-illumination and detection system. Fluorescence was evident throughout the body at 10 min after HerDox injection, then quickly accumulated at the tumors by 20 min and remained detectable in the tumors up to 100 min after injection (FIG. 11 (A)).

[2] = system: bilateral flank tumors (HER2+); test: In vivo tumor toxicity, tumor growth; design: species or system mice; settings: daily tail vein injections, 0.004 mg/kg Dox conc, 7 consecutive days
Protocol: FIGS. 12 (A)-(D) illustrates comparison of HerDox and Dox on (A) tumor growth, (B) animal weight, (C) cardiac tissue, and (D) cardiac function.
To assess in vivo tumor toxicity, mice bearing 3-4 week bilateral flank tumors began receiving daily tail vein injections of Dox or HerDox (0.004 mg/kg with respect to Dox conc), HerPBK10 alone (at equivalent protein concentration to HerDox) or saline for 7 consecutive days.

[3] = Stability in mouse whole blood; type: in vitro ADME; settings: 0.12 mg/mL Dox conc, 37° C. up to 1 h, 0.5 mM EDTA
Protocol: FIG. 13 illustrates stability in mouse whole blood. Freshly collected whole blood was processed by ultrafiltration through 10K MW cutoff membranes after up to 1 h incubation with HerDox or Dox at 37° C. As 0.5 mM EDTA was used as an anticoagulant, HerDox in EDTA alone (-blood) was processed in parallel. Bars represent fluorescence of retained (retentates) or released (filtrates) Dox as a percentage of the total fluorescence of each sample. Scale of Y-axis is adjusted to show presence of filtrate samples. N=3 per treatment.
To assess the feasibility of measuring in vivo stability, the inventors incubated HerDox (at 0.12 mg/mL final Dox conc) or free Dox at equivalent concentration in freshly collected whole blood from mice and incubated the mixtures at 37° C. up to 1 h. As the anticoagulant, 0.5 mM EDTA, was present in the blood collection, parallel samples were incubated at 37° C. in EDTA alone. Samples representing input HerDox (before incubation in blood) were incubated at 37° C. in HEPES-buffered saline. All samples were then centrifuged through 10K MW cutoff filters and Dox fluorescence measured in retentates and filtrates (SpectraMax M2 from Molecular Devices). […] Likewise, there is no appreciable loss of Dox from HerDox retentates from samples incubated in blood compared to those incubated in saline or EDTA alone (FIG. 13).

U251 human glioma cells = test: Toxicity to glioma cells, cell counting; type: cell-based; settings: 4 hours, counted after four days
Protocol: FIGS. 20 (A)-(B) illustrates HerDox is toxic to glioma cells. FIG. 20 (A) depicts HER immunofluorescence on U251 human glioma cells. Images were captured using laser scanning fluorescence confocal microscopy. FIG. 20 (B) depicts a graph of HerDox vs. Dox toxicity to U251 cells. Significant differences were determined by 2-tailed tests.
U251 cells growing in dishes were incubated with either HerDox or Dox (at either 0.5 uM or 1 uM) in the culture medium for 4 hours at 37° C., 5% C02, after which fresh complete medium was added to increase the final culture volume approximately four-fold, and the cells maintained at 37° C., 5% C02 for four days. Cells were trypsinized and counted on the last day.

[4] = harvested at 3 h after injection
[5] = single tail vein injection, live imaging

B1: HerDox: non-covalent complex of HerPBK10, a small double-stranded nucleic acid and intercalated Dox (conjugate)
chain: LPPRLKEMKSQESAAGSKLVLRCETSSEYSSLRFKWFKNGNELNRKNKPQNIKIQKKPGKSELRINKASLADSGEYMCKVISKLGNDSASANITIVESNEIITGMPASTEGAYVSSESPIRISVSTEGANTSSSTSTSTTGTSHLVKCAEKEKTFCVNGGECFMVKDLSNPSRYLCKCQPGFTGARCTENVPMKVQNQEKAEELYMRRAAMYEEGPPPSYESVVSAAPVAAALGSPFDAPLDPPFVPPRYLRPTGGRNSIRYSELAPLFDTTRVYLVDNKSTDVASLNYQNDHSNFLTTVIQNNDYSPGEASTQTINLDDRSHWGGDLKTILHTNMPNVNEFMFTNKFKARVMVSRLPTKDNQVELKYEWVEFTLPEGNYSETMTIDLMNNAIVEHYLKVGRQNGVLESDIGVKFDTRNFRLGFDPVTGLVMPGVYTNEAFHPDIILLPGCGVDFTHSRLSNLLGIRKRQPFQEGFRITYDDLEGGNIPALLDVDAYQASLKDDTEQGGGGAGGSNSSGSGAEENSNAAAAAMQPVEDMNDHAIRGDTFATRAEEKRAEAEAAAEAAAPAAQPEVEKPQKKPVIKPLTEDSKKRSYNLISNDSTFTQYRSWYLAYNYGDPQTGIRSWTLLCTPDVTCGSEQVYWSLPDMMQDPVTFRSTRQISNFPVVGAELLPVHSKSFYNDQAVYSQLIRQFTSLTHVFNRFPENQILARPPAPTITTVSENVPALTDHGTLPLRNSIGGVQRVTITDARRRTCPYVYKALGIVSPRVLSSRTFKKKKKKKKKK
modifications: left off: small tags and cut ends
notes: non-covalent complex of HerPBK10, a small double-stranded nucleic acid and intercalated Dox
**Q.** What does the source list for B1?
**A.** product remaining intact ([1]; 4° C.): 100%; effect of storage on Dox incorporation ([1]; room temperature and 37° C.): enhance the incorporation of the drug; Dox fluorescence in heart, spleen, lungs, and skeletal muscle (HER2+ tumors; [4]): did not exhibit any fluorescence; Dox fluorescence in kidneys (HER2+ tumors; [4]): barely detectable; Dox fluorescence in liver (HER2+ tumors; [4]): substantially lower levels of fluorescence; Dox fluorescence in tumors (HER2+ tumors; [4]): intense fluorescence; time by which fluorescence accumulated at the tumors (HER2+ tumors; [5]): ≤ 20 min; time fluorescence remained detectable in the tumors (HER2+ tumors; [5]): up to 100 min; tumor growth [2]: essentially prevented tumor growth; loss of Dox from the conjugate in whole blood [3]: no detectable loss of Dox; toxicity relative to the equivalent concentration of Dox (U251 human glioma cells; 0.5 uM or 1 uM): 8-10 times; less HerDox eliciting the same toxicity as Dox (U251 human glioma cells): 10 ×
